Target: recombinant trypanothione reductase from Leishmania braziliensis (Leishmania braziliensis) (UniProt A4H480)

Substance: crotapotin from Crotalus durissus terrificus venom (natural protein)
- IC50 of inhibition of LbTR enzymatic activity (reduction of T[S]2, DTNB-coupled, absorbance at 412 nm; 0.04 µM enzyme, crotapotin 0, 100, 150 and 200 µM, 28 °C, pH 7.5): 224 μM

Source: paper PMC11970842
